Earlier results on one substance are cited in publication PMC6105697.

The target in the data set is NKG2D (Homo sapiens) (UniProt P26718). As to the kind of experiment: surface plasmon resonance.
Chain of UniProt P26718 (P26718 whole entry): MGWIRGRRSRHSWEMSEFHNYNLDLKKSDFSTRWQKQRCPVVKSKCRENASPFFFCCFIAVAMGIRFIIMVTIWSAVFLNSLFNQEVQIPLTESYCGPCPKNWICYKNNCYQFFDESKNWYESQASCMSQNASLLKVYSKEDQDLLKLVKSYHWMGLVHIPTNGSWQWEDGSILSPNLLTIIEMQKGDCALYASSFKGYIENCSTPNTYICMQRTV

As for ULBP0602 (from UniProt Q5VY80), the Kd is 0.0155 µM.
